The values that follow come from patent US20230340555A1, “PRODUCTION OF GLYCOSYLATED CANNABINOIDS” (WILLOW BIOSCIENCES, INC., priority 2020, published 2023).

For data set [1] the following is noted: cited from earlier work.
Data set [2] has as its system bacterial strain BL21 (DE3). Briefly: CBDA depletion in BL21 (DE3) strains expressing UGTs (UHPLC-MS). The data set is classed as cell-based. The settings on record: 0.1 mM CBDA, induced with 100 µM IPTG for 4h at 37° C. vs controls without induction. The source says: The following cDNAs encoding UGTs from Arabidopsis thaliana, Cannabis sativa and Helianthus annuus UGTs were cloned into pDONOR-zeo (as described in Example 1) and then recombined into the prokaryotic expression vector pDEST14: AtUGT73C6 (SEQ ID NO: 3), AtUGT88A1 (SEQ ID NO: 5), AtUGT71 D1 (SEQ ID NO: 7), AtUGT73B4 (SEQ ID NO: 9), AtUGT76C4 (SEQ ID NO: 11), AtUGT76E12 (SEQ ID NO: 13), and At5g49690 (SEQ ID NO: 17), CsUGT73C6 (SEQ ID NO: 15), HaUGT76G1L (SEQ ID NO: 1), and SrUGT76G1 (SEQ ID NO: 19). Host cells from the bacterial strain BL21 (DE3) were transformed individually pDEST14 vector.
A BL21 (DE3) single colony was inoculated in liquid media and incubated at 37° C. overnight. The bacterial cultures were diluted to a final 0.6 OD and CBDA was added to a final concentration of 0.1 mM. The cultures were split, and half was induced with 100 µM IPTG for 4h at 37° C. to express the UGTs and the other half was kept as controls without induction of UGT expression.
Subsequently, samples were treated with a 1:1 volume of acetonitrile for 15 minutes at 250 RPM. After 30 minutes centrifugation at 4,000 RPM, samples were diluted 1000-fold in the same solvent for further analysis.
CBDA depletion was assayed employing UHPLC-MS analysis. The instrument used was a Thermo Vanquish UHPLC connected to a Thermo TSQ Altis mass spectrometer. The UHPLC consists of a vacuum degasser, a ternary pump, a thermostated autosampler held at 5° C., and a thermostated column compartment. An Accucore C18 (150 × 2.2 mm, 2.6 µm, Thermo, USA) was used. The mobile phase is water with 0.1 % formic acid (A) and acetonitrile with 0.1 % formic acid (B) on a linear gradient (see Table 5). The flow rate was set at 0.800 mL/min. The column temperature was set at 30° C. The sample injection volume was 1 µL.
MS analyses were carried out in order to ensure the identity of the peaks and were performed on a Thermo TSQ Altis triple quadrupole mass spectrometer using electrospray ionization in negative mode. Compounds were analyzed using selected reaction monitoring using two ion pairs for quantitation and confirmation respectively.

Data set [3] concerns CN3 yeast strain host cells. Kind of data set: Detection of glycosylated cannabinoids and cannabinoid precursors in yeast cells expressing UDP-glycosyl transferase (HPLC-MS). Type of data set: cell-based. Also on record: key to CBDA-glc / OLA-glc / CBGA-glc / CBGA-(glc)2 / CBD-glc / CBD-(glc)2 / OLA-(glc)2 / CBGA-glucuronic acid: (+) represents the lowest detected quantities; (++), (+++), and (++++) signify relative increasing intermediate detected levels; (++), (+++), and (++++) signify relative increasing intermediate detected levels; (++), (+++), and (++++) signify relative increasing intermediate detected levels; (+++++) represents the highest detected quantities; No detectable levels of a glycosylated cannabinoid compound or glycosylated cannabinoid precursor compound are indicated by “n.d.”. The settings on record: for production of glycosylated cannabinoids or cannabinoid precursor compounds: pellet or supernatant of recombinant yeast host cells transformed with the UGT; for CBD-(glc)2 / CBD-glc: 0.5 g/L CBD. Put shortly:
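CN3 yeast host cells carrying a heterologous UDP-glycosyl transferase gene were grown overnight in YPD, then diluted into YPG to OD600 = 0.2 and shaken at 600 RPM and 28° C. Cell pellets and supernatants were extracted for 1 hour in 80 % Acetonitrile/20 % Methanol, centrifuged at 12,000 RPM, filtered (0.22 µm), and checked for glycosylated cannabinoids and precursors by HPLC and negative-mode ESI QToF HPLC-MS.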

[4] abbreviates: 20 h growth, detected in PELLET, 0.05 mM hexanoic acid.
The mark [5] stands for this setting: 20 h growth, detected in PELLET.
Setting [6] is: 20 h growth, detected in SUPERNATANT, 0.2 mM hexanoic acid.
The mark [7] stands for this setting: 20 h growth, detected in SUPERNATANT

With `CCCCCc1cc(O)c2c(c1)OC(C)(C)C1CCC(C)=CC21` (centres unmarked) [Δ^9-THC, Δ^9-tetrahydrocannabinol], the solubility in water result in data set [1] was “less than 0.01 mg/ml”.

B1: SrUGT76G1: UDP-glycosyl transferase from Stevia rebaudiana, amino acid sequence SEQ ID NO: 20 (protein, listed as Stevia rebaudiana)
chain: MENKTETTVRRRRRIILFPVPFQGHINPILQLANVLYSKGFSITIFHTNFNKPKTSNYPHFTFRFILDNDPQDERISNLPTHGPLAGMRIPIINEHGADELRRELELLMLASEEDEEVSCLITDALWYFAQSVADSLNLRRLVLMTSSLFNFHAHVSLPQFDELGYLDPDDKTRLEEQASGFPMLKVKDIKSAYSNWQILKEILGKMIKQTRASSGVIWNSFKELEESELETVIREIPAPSFLIPLPKHLTASSSSLLDHDRTVFQWLDQQPPSSVLYVSFGSTSEVDEKDFLEIARGLVDSKQSFLWVVRPGFVKGSTWVEPLPDGFLGERGRIVKWVPQQEVLAHGAIGAFWTHSGWNSTLESVCEGVPMIFSDFGLDQPLNARYMSDVLKVGVYLENGWERGEIANAIRRVMVDEEGEYIRQNARVLKQKADVSLMKGGSSYESLESLVSYISSL
As to B1, the “decrease in CBDA content” value in data set [2] is given as 21%. Moreover, the “production of glycosylated cannabinoids or cannabinoid precursor compounds” value (“production” for short) in data set [3] is recorded as “No production”.

B2: AtUGT73C6: UDP-glycosyl transferase from Arabidopsis thaliana, amino acid sequence SEQ ID NO: 4 (protein, listed as Arabidopsis thaliana)
chain: MAFEKNNEPFPLHFVLFPFMAQGHMIPMVDIARLLAQRGVLITIVTTPHNAARFKNVLNRAIESGLPINLVQVKFPYQEAGLQEGQENMDLLTTMEQITSFFKAVNLLKEPVQNLIEEMSPRPSCLISDMCLSYTSEIAKKFKIPKILFHGMGCFCLLCVNVLRKNREILDNLKSDKEYFIVPYFPDRVEFTRPQVPVETYVPAGWKEILEDMVEADKTSYGVIVNSFQELEPAYAKDFKEARSGKAWTIGPVSLCNKVGVDKAERGNKSDIDQDECLEWLDSKEPGSVLYVCLGSICNLPLSQLLELGLGLEESQRPFIWVIRGWEKYKELVEWFSESGFEDRIQDRGLLIKGWSPQMLILSHPSVGGFLTHCGWNSTLEGITAGLPMLTWPLFADQFCNEKLVVQILKVGVSAEVKEVMKWGEEEKIGVLVDKEGVKKAVEELMGESDDAKERRRRAKELGESAHKAVEEGGSSHSNITFLLQDIMQLAQSNN
B2: in data set [2], the “decrease in CBDA content” value is 12%. Further, in data set [3] (setting [4]), the CBDA-glc entry was “+++”, the “CBGA-(glc)2” value is recorded as “++”, the CBGA-glc entry was “++++” and the CBGA-glucuronic acid result is given as “++”. Moreover, in data set [3] (setting [4]), the “OLA-(glc)2” value is on record as “++” and the OLA-glc result is recorded as “+++”. In data set [3] (setting [5]), the “CBD-(glc)2” value was “++” and the CBD-glc result was “+++”. In data set [3] (setting [6]), the “CBGA-(glc)2” value was “+”, the CBGA-glc result is given as “+” and the OLA-glc entry is reported as “+++”. Also, in data set [3] (setting [7]), the “CBD-(glc)2” value is “++” and the CBD-glc entry was “+++”. Also, the “production” value in data set [3] is reported as “detected”.

B3: At5g49690: UDP-glycosyl transferase from Arabidopsis thaliana, amino acid sequence SEQ ID NO: 18 (protein, listed as Arabidopsis thaliana)
chain: MVDKREEVMHVAMFPWLAMGHLLPFLRLSKLLAQKGHKISFISTPRNIERLPKLQSNLASSITFVSFPLPPISGLPPSSESSMDVPYNKQQSLKAAFDLLQPPLKEFLRRSSPDWIIYDYASHWLPSIAAELGISKAFFSLFNAATLCFMGPSSSLIEEIRSTPEDFTVVPPWVPFKSNIVFRYHEVTRYVEKTEEDVTGVSDSVRFGYSIDESDAVFVRSCPEFEPEWFGLLKDLYRKPVFPIGFLPPVIEDDDAVDTTWVRIKKWLDKQRLNSVVYVSLGTEASLRHEEVTELALGLEKSETPFFWVLRNEPKIPDGFKTRVKGRGMVHVGWVPQVKILSHESVGGFLTHCGWNSVVEGLGFGKVPIFFPVLNEQGLNTRLLHGKGLGVEVSRDERDGSFDSDSVADSIRLVMIDDAGEEIRAKAKVMKDLFGNMDENIRYVDELVRFMRSKGSSSSS
For the molecule B3, in data set [2], the “decrease in CBDA content” value worked out at 9%. Further, the CBDA-glc entry in data set [3] (setting [4]) was “+”. In addition, the “production” value in data set [3] was “detected”.

B4: AtUGT71 D1: UDP-glycosyl transferase from Arabidopsis thaliana, amino acid sequence SEQ ID NO: 8 (protein, listed as Arabidopsis thaliana)
chain: MRNVELIFIPTPTVGHLVPFLEFARRLIEQDDRIRITILLMKLQGQSHLDTYVKSIASSQPFVRFIDVPELEEKPTLGSTQSVEAYVYDVIERNIPLVRNIVMDILTSLALDGVKVKGLVVDFFCLPMIDVAKDISLPFYVFLTTNSGFLAMMQYLADRHSRDTSVFVRNSEEMLSIPGFVNPVPANVLPSALFVEDGYDAYVKLAILFTKANGILVNSSFDIEPYSVNHFLQEQNYPSVYAVGPIFDLKAQPHPEQDLTRRDELMKWLDDQPEASVVFLCFGSMARLRGSLVKEIAHGLELCQYRFLWSLRKEEVTKDDLPEGFLDRVDGRGMICGWSPQVEILAHKAVGGFVSHCGWNSIVESLWFGVPIVTWPMYAEQQLNAFLMVKELKLAVELKLDYRVHSDEIVNANEIETAIRYVMDTDNNVVRKRVMDISQMIQRATKNGGSSFAAIEKFIYDVIGIKP
For the molecule B4, the “decrease in CBDA content” value in data set [2] was determined as 9%. Besides, in data set [3] (setting [4]), the CBDA-glc result was “++”. In data set [3] (setting [4]), the CBGA-glc result is listed as “+”. The OLA-glc result in data set [3] (setting [4]) and in data set [3] (setting [6]) was “++” throughout. Besides, the CBD-glc entry in data set [3] (setting [5]) and in data set [3] (setting [7]) was “+++” in each case. Further, the “production” value in data set [3] is recorded as “detected”.
